Results on 15 sequences are retold here after a protein production outcome set (Wang et al. 2014).

This data set in a line: label from the status in PepcDB records.
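Further: failed if final PepcDB status was selected cloned or expressed and not failed if soluble or beyond.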

As for “MEGMKGAVLITGASRGIGEATARLLHAKGYRVGLMARDEKRLQALAAELEGALPLPGDVREEGDWARAVAAMEEAFGELSALVNNAGVGVMKPVHELTLEEWRLVLDTNLTGAFLGIRHAVPALLRRGGGTIVNVGSLAGKNPFKGGAAYNASKFGLLGLAGAAMLDLREANVRVVNVLPGSVDTGFAGNTPGQAWKLKPEDVAQAVLFALEMPGHAMVSEIELRPTRPTSGPR”, the protein production entry was “not failed”.

On to “MEGPLNLAHQQSRRADRLLAAGKYEEAISCHRKATTYLSEAMKLTESEQAHLSLELQRDSHMKQLLLIQERWKRAKREERLKAH”, for which the protein production result was “not failed”.

In the case of “MEGQTHDAQNNVPEHDNPLMNVKNPSSNLFSKKDAQCLSVLCNGKWLQIVRSSPKVSCEASTCPSHILTKVGENYVAESEKMHKKVISFSSKTFSQGTLQFTMRANGTPHFVFKLENQKDVYVASLSSNVQDQNSYMIHLQRGESSASSSHLVGRINVSTLFSEKVLEREFVLFSSNGENLKIPRTRKNRGLSKKVVHAVKNERRTARLSRTSFIPDLGSWDEQFQAQNYDCLLKNKLPTNLETLAVVVKQETIEDEIGGWGLKFLKRSPMFQRSNDASETETSTSSISMNVVIPSGIHGGPEDGPSSLIERWKSQGNCDCGGWDLCCSLTLLKGQPRKDQYFELFIEVKLSFISSNTSIL”, the protein production result is given as “failed”.

Consider “MEGVELELERRSKFLNSLIQKKKAKEQQDQKDEFNVRVRASDMPLPQQNRAFSLSREILNATPGKADNKRLAHALKKDFDSAYGPAWHCIVGTSFGSYVTHSTGGFLYFQIDKVYVLLFKTAVEPLDQK”, for which the protein production result was “failed”.

For the sequence “MEHDLNDMMVFLAVVETGSFTLAADRLGMPKANVSRKVSRLEKNLAVTLLERSTRSQHLTEAGRRYLAHCKRIHEELDLATASVCELFHSYTGELKIGASVASGQQVLRPALGKFMRQYPDLKVQLNLVNRRVDFIEEGFDVVIRIGQLNDSMLIAKKLGAINRKIFASPSYLAKQGNPDKVEQLTEHQLLIMNPLNISGNKDLKLPLTSTDHETFTLDCQPRLLVDDFSMLKQAIVDGLGIGVLPDYMCRQEVASGQLVNILPDWGMAKVDIYALYPKHRAKIPKVKAFIDFVSELYGEVL”, the protein production result is “not failed”.

For the sequence “MEHKIVHVGDIPVANDKPFTLFAGMNVLESRDLAMQICEHYVKVTDKLGIPYVFKASFDKANRSSVHSYRGPGLEEGMKIFQELKETFGVKIITDVHTEAQAQPVADVVDVIQLPAFLARQTDLVEAMAKTGAVINVKKPQFMSPGQVGNIVEKFAECGNDKVILCERGSCHGYDNLVVDMLGFGVMKQASNGSPIIFDVTHSLQMRDPSGAASGGRREQTVELAKAGLATGIAGLFIEAHPNPDKARCDGPSALPLDKLEPFLAQMKALDDLIKSFAHIDIR”, the protein production entry is given as “not failed”.

For “MEHKKALFCIFAIIHLFFWIIFSSLNHFKLDTFLSYEIAFFSVLLIIFASYLNYKKVIIKKSKNYEKDFNFISSLFIKKKQNLSKIIHFKVLKDDLKPNVKEKIHFFAMFFTLFKLMAYVVLVAGFLFLHRQDKLDIFAYICGISSLLVCVFIFILYIKKYESKKNY”, the protein production entry is “failed”.

Consider “MEIAKGVEMLQLEFQEFIIHPILLWNDEMAVLIDTGFPGQFEDIQVEMKRVGVSVDKLKVVILTHQDIDHIGSLPDLLENGVSDIKVYAHELDKRYIEGDLPLLKDVHVENPPKGKVSDTVIDGQELPYCGGILILHTPGHTPGHISLYLKQSKTLIAGDSMYSVNGKLGGIHAPTTLNIMEAQQSLKKYLNLDIESVVCYHGGLSKGNIKIQLQNL”, for which the protein production entry is “failed”.

Take “MEIAVERVFTKEILKRAVNLFHVTVEEKPLGDFENYIFKAKGDNDEDYVLRLTHSSHRSKQEVEAELDFLRYVAENGAKVAGPLYSTSRNLVEEIVAEDGTFFFASLFIYAKGEQVKGAESPYWGDAYFEAWGKAIGQLHRLTMDYPKTDYRDTWEEDESGIVNELEDGQVKEIAAVLMDEIKALPVERETFGLMHGDIHQGNFHYDGKELTIFDFDDAAYNYFIHDLAMVLYYSVLFTPWTAEEKTDFARKQLQVLRKGYEYEHRLADSWYESLPLFLRLRDIGLYGTLQKKFKGKDMPDNFLKLSEELYERIIKREAIVNI”: the protein production result was “failed”.

“MEIEYIKDYRDINQEDDTVLILGYFDGLHRGHKALFDKAREVANKEGLKVVVFTFTESPKLAFSRFSPELLLHITYPKKRYEKFADYGVNKLYLVDFTSKFSKVSSDHFITHYIKNLKAKHIVVGFDYKFGHNRTDSDYLTRNFEGQVYTIEEIKEDHRKISATWIRKLIQEGNVVKANHLLGYDLSTRGRVVHGDARGRTIGFPTANLAPIDNTYLPADGVYVTNVIVANKIYRSMTSLGKNVTFGGKELRLEVNIFDFDEEIYGEIIEIVWLDKIRDMEKFEGIEDLTDRLEYDKRTALNWKKDSKLS”: the protein production entry is listed as “failed”.

As to “MEIIIYIFVSIAIISLQAITPFVIRKSECFGVNVGERANRNAELTQLKKQYVGQVILWTVLVAIIGIALIQGFHWSENIQAGIFIISMFGQLIVSFIIYYRFHHTTLQWKREKIESGEISTNSIIMVDTSFHRRKMVISYTWFVVPLLIFIITLAITAVFYPFAPEEFPVHFDMNGVVTDTVQKSVRAALLLPMLQLGMIALFIFINFVIARSKQTVENENPADSLKRNMLFRQISSKAMLIMCVILVIDFLVMQAVILLSLSPEIMMITMSISIILILLGTVLLAVKVGQGGSRLKFANEPDNVNKPIRDDDAFWKAGVIYFNRNDPALFVEKRFGIGWTINTARPVAWLTFVFIIAAIVFISILF”, the protein production entry is listed as “failed”.

For “MEIKAMFRDVSLSSRNFSEMLSRESKVVAALAAKSPLMAHANWRLKGNSLEEATLYPAFDADGSPSTPALAVLNEEQRGKKHSASHAAIWNGNTRPNEGASMSCHVSDEKVLPDRFSTRLGVPDCYAKSQDLADVVTTIVAAFNPLVVEASPEGYFDKQVFDDKPGVGWMLYLPKVITQQQVPEARALIPVSAKGKQTGTIIVSVTDAPFSVDNPEHVAIANRIEIRLVDQDLLPAYVDI”, the protein production entry is “not failed”.

Take “MEIKAYKKKNGTTAYKFKAYIGKKNGKSQYAEKSGFKTKADARAALHNIQEEIDNPTPKSSMTFKELYDEWLLVYEKEVQNSTYYKTTRAFEKHVLPVIGSTKLSDFTPMELQNFRNDLSEKLKFARKLFGMVRKVFNHAALLSYIQANPALPVTSQGIKKKVEEKKDFYDTDELRDFMALVEKTNDIKKIALFRILAFTGIRKGELLALEWKDYRKSTLDINKAISHSPVGYEILPPKANSNRLLSLDEKTCKILDELHQTYPESTRIFESENGGMLSPSKPRKWLLEITKEKEIEPIRIHAFRHTHASLLFESGMSLKQVQYRLGHADLKTTMNIYTHITKFAKDKIGQQFSDYIDF”: the protein production entry is “failed”.

On to “MEIKGESMQKSKFRRICVFCGSSQGKKSSYQDAAVDLGNELVSRNIDLVYGGGSIGLMGLVSQAVHDGGRHLTGETVGEVRAVADMHQRKAEMAKHSDAFIALPGGYGTLEELLEVITWAQLGIHDKPVGLLNVDGYYNSLLSFIDKAVEEGFISPTAREIIVSAPTAKELVKKLEVN”, for which the protein production entry is “not failed”.

In the case of “MEIKLFCVFIVFIILFSPFVIALSYPDVNYTAENGIIFVQNVTTGEKKPLYLHGVSWFGFELKDHVVYGLDKRNWKDILKDVKRLGFNAIRLPFCSESIRPDTRPSPERINYELNPDLKNLTSLEIMEKIIEYANSIGLYILLDYHRIGCEEIEPLWYTENYSEEQYIKDWIFLAKRFGKYPNVIGADIKNEPHGEAGWGTGDERDFRLFAEKVGREILKVAPHWLIFVEGTQYTHVPNIDEIIEKKGWWTFWGENLMGVKDYPVRLPRGKVVYSPHVYGPSVYMMDYFKSPDFPNNMPIIWETHFGYLTDLNYTLVIGEWGGNYEGLDKVWQDAFVKWLIKKKIYNFFYWCLNPESGDTGGIFLDDWKTVNWEKMRVIYRLIKAANPEFEEPLYIILKTNATTSILGVGERIRIYWYTNGKVIDSNFAHSSEGEMNITVTKSMTLYIIVKKGNQTLRKELKLYVIGGNYGSNISTTQLVTPKKGGERISTSLKLAISLLFILLFVWYLLREKH”, the protein production result is given as “failed”.
